{"source": "patent US7432342", "about": "(dated 2008)", "key": {"PKA-RIα-GFP [1]": {"target": "PKA-RIα-GFP (UniProt P10644)", "sequence (P10644 whole entry)": "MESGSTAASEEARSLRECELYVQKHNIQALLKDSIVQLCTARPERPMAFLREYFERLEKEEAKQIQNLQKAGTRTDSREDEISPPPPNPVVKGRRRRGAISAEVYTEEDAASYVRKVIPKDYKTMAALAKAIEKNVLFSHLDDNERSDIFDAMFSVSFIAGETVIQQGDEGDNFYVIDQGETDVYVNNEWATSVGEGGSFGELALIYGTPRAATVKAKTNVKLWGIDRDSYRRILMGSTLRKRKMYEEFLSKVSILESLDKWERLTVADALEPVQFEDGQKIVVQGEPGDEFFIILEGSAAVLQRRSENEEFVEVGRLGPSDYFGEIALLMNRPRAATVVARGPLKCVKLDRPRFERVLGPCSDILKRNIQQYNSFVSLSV"}, "PKA-RIIα-GFP [2]": {"target": "PKA-RIIα-GFP (UniProt P13861)", "sequence (P13861 2-404)": "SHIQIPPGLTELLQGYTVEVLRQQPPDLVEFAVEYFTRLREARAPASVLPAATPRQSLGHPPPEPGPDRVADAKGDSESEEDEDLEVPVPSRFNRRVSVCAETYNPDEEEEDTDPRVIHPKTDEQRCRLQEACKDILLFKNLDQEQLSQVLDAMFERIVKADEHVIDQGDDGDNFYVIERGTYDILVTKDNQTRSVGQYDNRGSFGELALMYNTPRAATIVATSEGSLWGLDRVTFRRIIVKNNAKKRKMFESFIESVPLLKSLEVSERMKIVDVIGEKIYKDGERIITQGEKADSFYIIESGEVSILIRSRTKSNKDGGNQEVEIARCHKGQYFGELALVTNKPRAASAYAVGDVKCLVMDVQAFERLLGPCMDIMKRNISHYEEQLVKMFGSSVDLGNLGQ"}, "PKA-RIα-GFP [3]": {"target": "PKA-RIα-GFP (UniProt P10644)", "remark": "listed apart in the source"}, "PKA-RIIα-GFP [4]": {"target": "PKA-RIIα-GFP (UniProt P13861)", "remark": "listed apart in the source"}, "PKA-RIα-GFP [5]": {"target": "PKA-RIα-GFP (UniProt P10644)", "remark": "listed apart in the source"}, "PKA-RIIα-GFP [6]": {"target": "PKA-RIIα-GFP (UniProt P13861)", "remark": "listed apart in the source"}, "PKA RIα (full-length) [7]": {"target": "T1, PKA RIα (full-length) (bovine, UniProt P00514)", "T1 sequence (P00514 2-380)": "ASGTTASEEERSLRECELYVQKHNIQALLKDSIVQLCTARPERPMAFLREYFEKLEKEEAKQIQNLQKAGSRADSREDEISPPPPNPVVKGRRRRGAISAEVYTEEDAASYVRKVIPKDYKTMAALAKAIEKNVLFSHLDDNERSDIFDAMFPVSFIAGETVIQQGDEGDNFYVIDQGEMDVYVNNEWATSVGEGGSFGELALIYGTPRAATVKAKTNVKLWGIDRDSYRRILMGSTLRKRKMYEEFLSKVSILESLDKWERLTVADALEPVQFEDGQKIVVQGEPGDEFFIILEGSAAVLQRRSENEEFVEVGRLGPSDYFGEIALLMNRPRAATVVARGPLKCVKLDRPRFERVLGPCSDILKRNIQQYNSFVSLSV", "test": "FP"}, "PKA RIIα (full-length) [8]": {"target": "T2, PKA RIIα (full-length) (mouse, UniProt P12367)", "T2 sequence (P12367 2-401)": "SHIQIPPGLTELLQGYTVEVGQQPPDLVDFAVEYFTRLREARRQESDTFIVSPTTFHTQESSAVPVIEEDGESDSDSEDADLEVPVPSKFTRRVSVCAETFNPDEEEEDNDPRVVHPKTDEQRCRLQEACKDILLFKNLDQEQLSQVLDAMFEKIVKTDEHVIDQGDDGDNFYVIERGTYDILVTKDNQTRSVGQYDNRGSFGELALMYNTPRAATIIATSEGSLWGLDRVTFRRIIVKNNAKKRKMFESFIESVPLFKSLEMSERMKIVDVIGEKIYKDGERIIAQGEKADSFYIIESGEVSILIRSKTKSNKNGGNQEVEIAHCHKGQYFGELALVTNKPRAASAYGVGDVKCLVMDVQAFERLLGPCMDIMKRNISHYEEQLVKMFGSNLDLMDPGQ", "test": "FP"}, "PKA-RIα-GFP [9]": {"target": "PKA-RIα-GFP (UniProt P10644)", "test": "SPR"}, "PKA RIIα (full-length) [10]": {"target": "T2, PKA RIIα (full-length)", "test": "FP", "remark": "listed apart in the source"}, "PKA RIα (full-length) [11]": {"target": "T1, PKA RIα (full-length)", "test": "FP", "remark": "listed apart in the source"}}, "note": "Read-outs that look alike come from different tables or passages of the source. Ends that are not written are not given here.", "data": [{"binder": "VQGNTDEAQEEL", "note": "[truncation SEQ 97]", "values": [{"measurement": "binding result", "setting": "PKA-RIα-GFP [1]", "result": "no binding"}, {"measurement": "binding result", "setting": "PKA-RIIα-GFP [2]", "result": "no binding"}]}, {"binder": "KIAKMIVSDIMQQ", "note": "[truncation SEQ 79]", "values": [{"measurement": "binding result", "setting": "PKA-RIα-GFP [3]", "result": "no binding"}, {"measurement": "binding result", "setting": "PKA-RIIα-GFP [4]", "result": "no binding"}]}, {"binder": "AKMIVSDIMQQ", "note": "[truncation SEQ 81]", "values": [{"measurement": "binding result", "setting": "PKA-RIα-GFP [3]", "result": "no binding"}, {"measurement": "binding result", "setting": "PKA-RIIα-GFP [4]", "result": "no binding"}]}, {"binder": "VQGNTDEAQEELAWK", "note": "[truncation SEQ 94]", "values": [{"measurement": "binding result", "setting": "PKA-RIα-GFP [1]", "result": "no binding"}, {"measurement": "binding result", "setting": "PKA-RIIα-GFP [2]", "result": "no binding"}]}, {"binder": "DEAQEELAWKIAKMIVS", "note": "[truncation SEQ 9]", "values": [{"measurement": "binding result", "setting": "PKA-RIα-GFP [5]", "result": "no binding"}]}, {"binder": "IAKMIVSDIMQQ", "note": "[truncation SEQ 80]", "values": [{"measurement": "binding result", "setting": "PKA-RIα-GFP [3]", "result": "no binding"}, {"measurement": "binding result", "setting": "PKA-RIIα-GFP [4]", "result": "no binding"}]}, {"binder": "VQGNTDEAQE", "note": "[truncation SEQ 99]", "values": [{"measurement": "binding result", "setting": "PKA-RIα-GFP [1]", "result": "no binding"}, {"measurement": "binding result", "setting": "PKA-RIIα-GFP [2]", "result": "no binding"}]}, {"binder": "ELAWKIA", "note": "[truncation SEQ 13]", "values": [{"measurement": "binding result", "setting": "PKA-RIα-GFP [5]", "result": "no binding"}, {"measurement": "binding result", "setting": "PKA-RIIα-GFP [6]", "result": "no binding"}]}, {"binder": "AQEELAWKIAKMI", "note": "[truncation SEQ 10]", "values": [{"measurement": "binding result", "setting": "PKA-RIα-GFP [5]", "result": "no binding"}, {"measurement": "binding result", "setting": "PKA-RIIα-GFP [6]", "result": "no binding"}]}, {"binder": "VQGNTDEAQEELAW", "note": "[truncation SEQ 95]", "values": [{"measurement": "binding result", "setting": "PKA-RIα-GFP [1]", "result": "no binding"}, {"measurement": "binding result", "setting": "PKA-RIIα-GFP [2]", "result": "no binding"}]}, {"binder": "VQGNTDEAQEELAWKIAKMIV", "note": "[truncation SEQ 88]", "values": [{"measurement": "binding result", "setting": "PKA-RIα-GFP [1]", "result": "no binding"}]}, {"binder": "Ac-DLAWKIAKMIVSDVMQQC", "note": "[Ac-DLAWKIAKMIVSDVMQQC]", "values": [{"measurement": "Kd", "setting": "PKA RIα (full-length) [7]", "result": 773, "unit": "nM"}, {"measurement": "Kd", "setting": "PKA RIIα (full-length) [8]", "result": 107, "unit": "nM"}]}, {"binder": "VQGNTDEAQEELAWKIAKMIVSD", "note": "[truncation SEQ 86]", "values": [{"measurement": "binding result", "setting": "PKA-RIα-GFP [1]", "result": "no binding"}]}, {"binder": "QEELAWKIAKM", "note": "[truncation SEQ 11]", "values": [{"measurement": "binding result", "setting": "PKA-RIα-GFP [5]", "result": "no binding"}, {"measurement": "binding result", "setting": "PKA-RIIα-GFP [6]", "result": "no binding"}]}, {"binder": "FEELAWKIAKMIISDVFQQC", "note": "[PV-49]", "values": [{"measurement": "Kd", "setting": "PKA RIα (full-length) [7]", "result": 1.1, "unit": "nM"}, {"measurement": "Kd", "setting": "PKA RIIα (full-length) [8]", "result": 2.5, "unit": "nM"}]}, {"binder": "Ac-VQGNTDEAQEELAWKIAKMIVSDVMQQ-NH2", "note": "[Ac-27mer Val]", "values": [{"measurement": "Kd", "setting": "PKA-RIα-GFP [9]", "result": 500, "unit": "nM"}]}, {"binder": "VQGNTDEAQEE", "note": "[truncation SEQ 98]", "values": [{"measurement": "binding result", "setting": "PKA-RIα-GFP [1]", "result": "no binding"}, {"measurement": "binding result", "setting": "PKA-RIIα-GFP [2]", "result": "no binding"}]}, {"binder": "KMIVSDIMQQ", "note": "[truncation SEQ 82]", "values": [{"measurement": "binding result", "setting": "PKA-RIα-GFP [3]", "result": "no binding"}, {"measurement": "binding result", "setting": "PKA-RIIα-GFP [4]", "result": "no binding"}]}, {"binder": "VQGNTDEAQEELLWKIAKMIVSDVMQQC (also: fluorescently labeled)", "note": "[AKB(RII)]", "values": [{"measurement": "Kd", "setting": "PKA RIIα (full-length) [10]", "result": 2.7, "unit": "nM"}, {"measurement": "Kd", "setting": "PKA RIα (full-length) [11]", "result": 2490, "unit": "nM"}]}, {"binder": "Ac-VQGNTDEAQEELAWKIAKMIVSDIMQQ", "note": "[Ac-27mer Ile]", "values": [{"measurement": "Kd", "setting": "PKA-RIα-GFP [9]", "result": 860, "unit": "nM"}]}, {"binder": "VQGNTDEAQEELAWKIAKMIVS", "note": "[truncation SEQ 87]", "values": [{"measurement": "binding result", "setting": "PKA-RIα-GFP [1]", "result": "no binding"}]}, {"binder": "VQGNTDEAQEELAWKIAKMIWSDVMQQC", "note": "[V21W]", "values": [{"measurement": "Kd", "setting": "PKA RIα (full-length) [7]", "result": 120, "unit": "nM"}, {"measurement": "Kd", "setting": "PKA RIIα (full-length) [8]", "result": 83, "unit": "nM"}]}, {"binder": "VQGNTDEAQEELAWKIA", "note": "[truncation SEQ 92]", "values": [{"measurement": "binding result", "setting": "PKA-RIα-GFP [1]", "result": "no binding"}, {"measurement": "binding result", "setting": "PKA-RIIα-GFP [2]", "result": "no binding"}]}, {"binder": "VQGNTDEAQEELAWKI", "note": "[truncation SEQ 93]", "values": [{"measurement": "binding result", "setting": "PKA-RIα-GFP [1]", "result": "no binding"}, {"measurement": "binding result", "setting": "PKA-RIIα-GFP [2]", "result": "no binding"}]}, {"binder": "QEEFAWKIAKMIVSDVFQQC", "note": "[PV-47]", "values": [{"measurement": "Kd", "setting": "PKA RIα (full-length) [7]", "result": 39, "unit": "nM"}, {"measurement": "Kd", "setting": "PKA RIIα (full-length) [8]", "result": 89, "unit": "nM"}]}, {"binder": "VQGNTDEAQEELAWKIAKMIVSDVMQQC(tetramethylrhodamine)", "note": "[AKB(dual) WT]", "values": [{"measurement": "Kd", "setting": "PKA RIα (full-length) [7]", "result": 48, "unit": "nM"}, {"measurement": "Kd", "setting": "PKA RIIα (full-length) [8]", "result": 2.2, "unit": "nM"}, {"measurement": "Kd", "setting": "PKA RIIα (full-length) [10]", "result": 2.2, "unit": "nM"}, {"measurement": "Kd", "setting": "PKA RIα (full-length) [11]", "result": 48, "unit": "nM"}]}, {"binder": "EAQEELAWKIAKMIV", "note": "[truncation SEQ 4]", "values": [{"measurement": "binding result", "setting": "PKA-RIα-GFP [5]", "result": "no binding"}]}, {"binder": "LAWKIAKMIVSDIMQQ", "note": "[truncation SEQ 76]", "values": [{"measurement": "binding result", "setting": "PKA-RIα-GFP [3]", "result": "no binding"}]}, {"binder": "QEEFAWKIAKMIISDVFQQC", "note": "[PV-48]", "values": [{"measurement": "Kd", "setting": "PKA RIα (full-length) [7]", "result": 12, "unit": "nM"}, {"measurement": "Kd", "setting": "PKA RIIα (full-length) [8]", "result": 124, "unit": "nM"}]}, {"binder": "EELAWKIAK", "note": "[truncation SEQ 12]", "values": [{"measurement": "binding result", "setting": "PKA-RIα-GFP [5]", "result": "no binding"}, {"measurement": "binding result", "setting": "PKA-RIIα-GFP [6]", "result": "no binding"}]}, {"binder": "VQGNTDEAQEELAWKIAK", "note": "[truncation SEQ 91]", "values": [{"measurement": "binding result", "setting": "PKA-RIα-GFP [1]", "result": "no binding"}, {"measurement": "binding result", "setting": "PKA-RIIα-GFP [2]", "result": "no binding"}]}, {"binder": "VQGNTDEAQEELAWKIAKMI", "note": "[truncation SEQ 89]", "values": [{"measurement": "binding result", "setting": "PKA-RIα-GFP [1]", "result": "no binding"}, {"measurement": "binding result", "setting": "PKA-RIIα-GFP [2]", "result": "no binding"}]}, {"binder": "VQGNTDEAQEELAWKIAKM", "note": "[truncation SEQ 90]", "values": [{"measurement": "binding result", "setting": "PKA-RIα-GFP [1]", "result": "no binding"}, {"measurement": "binding result", "setting": "PKA-RIIα-GFP [2]", "result": "no binding"}]}, {"binder": "WKIAKMIVSDIMQQ", "note": "[truncation SEQ 78]", "values": [{"measurement": "binding result", "setting": "PKA-RIα-GFP [3]", "result": "no binding"}, {"measurement": "binding result", "setting": "PKA-RIIα-GFP [4]", "result": "no binding"}]}, {"binder": "FEELAWKIAKMIWSDVFQQC", "note": "[AKB(RI) PV-38]", "values": [{"measurement": "Kd", "setting": "PKA RIα (full-length) [7]", "result": 5.2, "unit": "nM"}, {"measurement": "Kd", "setting": "PKA RIIα (full-length) [8]", "result": 456, "unit": "nM"}, {"measurement": "Kd", "setting": "PKA RIIα (full-length) [10]", "result": 456, "unit": "nM"}, {"measurement": "Kd", "setting": "PKA RIα (full-length) [11]", "result": 5.2, "unit": "nM"}]}, {"binder": "VQGNTDEAQEELA", "note": "[truncation SEQ 96]", "values": [{"measurement": "binding result", "setting": "PKA-RIα-GFP [1]", "result": "no binding"}, {"measurement": "binding result", "setting": "PKA-RIIα-GFP [2]", "result": "no binding"}]}, {"binder": "TDEAQEELAWKIAKMIVSD", "note": "[truncation SEQ 8]", "values": [{"measurement": "binding result", "setting": "PKA-RIα-GFP [5]", "result": "no binding"}]}, {"binder": "VQGNTDEAQEELAWKIEKMIWSDVMQQC (also: fluorescently labeled)", "note": "[AKB(null)]", "values": [{"measurement": "Kd", "setting": "PKA RIIα (full-length) [10]", "result": "> 10000", "unit": "nM"}, {"measurement": "Kd", "setting": "PKA RIα (full-length) [11]", "result": 998, "unit": "nM"}]}, {"binder": "AWKIAKMIVSDIMQQ", "note": "[truncation SEQ 77]", "values": [{"measurement": "binding result", "setting": "PKA-RIα-GFP [3]", "result": "no binding"}]}, {"binder": "FEELAWKIAKMIWSDVMQQC", "note": "[PV-37]", "values": [{"measurement": "Kd", "setting": "PKA RIα (full-length) [7]", "result": 19, "unit": "nM"}, {"measurement": "Kd", "setting": "PKA RIIα (full-length) [8]", "result": 150, "unit": "nM"}]}]}
